The numbers were not newly measured in publication PMC6225487, which cites them from elsewhere.

The target in this series is TfR (Homo sapiens) (UniProt P02786).
Sequence of TfR (Homo sapiens) (P02786 89-760): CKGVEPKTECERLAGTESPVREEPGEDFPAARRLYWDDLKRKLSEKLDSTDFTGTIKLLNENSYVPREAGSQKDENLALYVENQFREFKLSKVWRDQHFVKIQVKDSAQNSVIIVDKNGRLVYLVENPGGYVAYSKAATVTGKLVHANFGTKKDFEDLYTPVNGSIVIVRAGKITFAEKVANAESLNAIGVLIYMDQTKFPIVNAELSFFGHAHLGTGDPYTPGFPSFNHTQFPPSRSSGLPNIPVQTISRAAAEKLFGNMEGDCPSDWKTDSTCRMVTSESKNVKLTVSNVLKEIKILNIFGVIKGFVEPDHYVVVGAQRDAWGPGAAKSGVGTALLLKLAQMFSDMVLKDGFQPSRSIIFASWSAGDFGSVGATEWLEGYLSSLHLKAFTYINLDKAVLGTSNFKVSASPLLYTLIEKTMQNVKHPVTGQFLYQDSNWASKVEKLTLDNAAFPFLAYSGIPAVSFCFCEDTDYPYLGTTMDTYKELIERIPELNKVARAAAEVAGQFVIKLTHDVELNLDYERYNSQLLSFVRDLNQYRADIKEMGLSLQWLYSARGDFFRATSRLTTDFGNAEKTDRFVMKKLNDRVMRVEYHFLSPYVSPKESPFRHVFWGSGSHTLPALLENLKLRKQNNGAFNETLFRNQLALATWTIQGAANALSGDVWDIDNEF

Turning to T7 peptide, the Kd was 0.01 µM.

As a reminder, the Kd is a measure of binding affinity in units of concentration.
